{"source": "paper PMC7573786", "about": "(Chemical communications (Cambridge, England), 2020)", "key": {"[1]": {"biological_target": "CBX1 chromodomain Y26AzF/F50AzF (UniProt P83916 20-73, Y26AzF, 4-azido-L-phenylalanine (AzF) at 26 and at 50)", "assay": "fluorescence polarisation"}, "[2]": {"biological_target": "CBX1 chromodomain Y26AzF/D54AzF (UniProt P83916 20-73, Y26AzF, 4-azido-L-phenylalanine (AzF) at 26 and at 54)", "assay": "fluorescence polarisation"}, "[3]": {"biological_target": "T1, wild type chromodomain of CBX1 (Chromobox protein 1) (UniProt P83916 20-73)", "assay": "fluorescence polarisation"}, "[4]": {"biological_target": "T1, wild type chromodomain of CBX1 …", "assay": "ITC"}}, "data": [{"binder": "ARTKQTARKSTGGKA (trimethyllysine at K9; tetramethyl rhodamine (TAMRA) at the N-terminus)", "note": "[TAMRA-H3K9me3 tracer peptide 2]", "values": [{"measurement": "Kd", "setting": "[1]", "value": "48.9 ± 8.7", "unit": "µM"}, {"measurement": "Kd", "setting": "[2]", "value": "50.8 ± 5.7", "unit": "µM"}, {"measurement": "Kd", "setting": "[3]", "value": "1.7 ± 0.2", "unit": "µM"}]}, {"binder": "ARTKQTARKSTGGKA (trimethyllysine at K9)", "note": "[H3K9me3 peptide 3 (non-TAMRA)]", "values": [{"measurement": "Kd", "setting": "[4]", "value": "5.3 ± 0.4", "unit": "µM"}]}]}
